Results: US20100129369A1
One block for each substance: values may come before it.

Legend:
[1] = target: human c-Met (human) (UniProt P08581); test: cell-based or functional assay
[2] = target: human c-Met ECD-Fc-Flis (human); test: HGF-blocking ELISA: HGF signal on coated c-Met ECD-Fc-Flis; Ab 7.63 ng/mL
[3] = target: human c-Met ECD-Fc-Flis (human); test: HGF-blocking ELISA: HGF signal on coated c-Met ECD-Fc-Flis; Ab 0.48 ng/mL
[4] = target: human c-Met ECD-Fc-Flis (human); test: HGF-blocking ELISA: HGF signal on coated c-Met ECD-Fc-Flis; Ab 1953.13 ng/mL
[5] = target: human c-Met ECD-Fc-Flis (human); test: HGF-blocking ELISA: HGF signal on coated c-Met ECD-Fc-Flis; Ab 488.28 ng/mL
[6] = target: human c-Met ECD-Fc-Flis (human); test: HGF-blocking ELISA: HGF signal on coated c-Met ECD-Fc-Flis; Ab 31250.00 ng/mL
[7] = target: human c-Met ECD-Fc-Flis (human); test: HGF-blocking ELISA: HGF signal on coated c-Met ECD-Fc-Flis; Ab 30.52 ng/mL
[8] = target: human c-Met ECD-Fc-Flis (human); test: HGF-blocking ELISA: HGF signal on coated c-Met ECD-Fc-Flis; Ab 122.07 ng/mL
[9] = target: human c-Met ECD-Fc-Flis (human); test: HGF-blocking ELISA: HGF signal on coated c-Met ECD-Fc-Flis; Ab 7812.50 ng/mL
[10] = target: human c-Met ECD-Fc-Flis (human); test: HGF-blocking ELISA: HGF signal on coated c-Met ECD-Fc-Flis; Ab 1.91 ng/mL
[11] = target: human c-Met ECD-Fc-Flis (human); test: HGF-blocking ELISA: HGF signal on coated c-Met ECD-Fc-Flis; Ab 0.00 ng/mL (HGF only)
[12] = target: human c-Met ECD-Fc-Flis (human); test: HGF-blocking ELISA: HGF signal on coated c-Met ECD-Fc-Flis; Ab 125000.00 ng/mL

Chain of human c-Met ECD-Fc-Flis (human) (chain, as listed by the source): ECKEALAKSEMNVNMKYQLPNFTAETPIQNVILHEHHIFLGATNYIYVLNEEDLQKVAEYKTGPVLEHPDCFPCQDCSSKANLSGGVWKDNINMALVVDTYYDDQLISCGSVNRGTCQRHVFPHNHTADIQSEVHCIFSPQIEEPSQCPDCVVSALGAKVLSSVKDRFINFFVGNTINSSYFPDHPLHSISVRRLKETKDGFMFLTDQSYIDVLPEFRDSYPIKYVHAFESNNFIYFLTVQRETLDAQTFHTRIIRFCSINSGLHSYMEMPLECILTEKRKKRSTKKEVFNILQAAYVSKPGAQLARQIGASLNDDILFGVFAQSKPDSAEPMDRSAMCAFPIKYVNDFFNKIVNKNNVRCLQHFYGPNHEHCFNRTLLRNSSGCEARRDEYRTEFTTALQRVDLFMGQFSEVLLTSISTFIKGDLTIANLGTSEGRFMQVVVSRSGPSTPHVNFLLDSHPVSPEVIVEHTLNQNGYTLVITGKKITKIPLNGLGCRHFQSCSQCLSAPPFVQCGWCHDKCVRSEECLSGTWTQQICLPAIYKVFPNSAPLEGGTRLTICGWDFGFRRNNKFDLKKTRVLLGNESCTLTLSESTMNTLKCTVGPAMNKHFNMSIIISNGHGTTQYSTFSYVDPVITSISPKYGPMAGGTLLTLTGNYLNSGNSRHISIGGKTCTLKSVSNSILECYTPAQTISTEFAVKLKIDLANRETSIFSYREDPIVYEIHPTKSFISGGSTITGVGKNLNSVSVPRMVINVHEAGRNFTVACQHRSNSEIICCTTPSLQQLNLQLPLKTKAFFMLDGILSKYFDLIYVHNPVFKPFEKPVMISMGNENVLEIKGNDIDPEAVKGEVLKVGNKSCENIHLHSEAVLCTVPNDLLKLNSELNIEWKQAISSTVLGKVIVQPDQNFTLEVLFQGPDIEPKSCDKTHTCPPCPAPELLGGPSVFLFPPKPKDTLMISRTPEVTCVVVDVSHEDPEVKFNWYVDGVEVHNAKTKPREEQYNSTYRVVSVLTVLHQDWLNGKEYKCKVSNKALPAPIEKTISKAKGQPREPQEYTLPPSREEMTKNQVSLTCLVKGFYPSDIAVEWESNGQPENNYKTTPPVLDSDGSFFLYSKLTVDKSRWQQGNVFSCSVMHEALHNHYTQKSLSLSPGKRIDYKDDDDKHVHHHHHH
Chain of human hepatocyte growth factor (HGF) (P14210 32-728 limits assumed): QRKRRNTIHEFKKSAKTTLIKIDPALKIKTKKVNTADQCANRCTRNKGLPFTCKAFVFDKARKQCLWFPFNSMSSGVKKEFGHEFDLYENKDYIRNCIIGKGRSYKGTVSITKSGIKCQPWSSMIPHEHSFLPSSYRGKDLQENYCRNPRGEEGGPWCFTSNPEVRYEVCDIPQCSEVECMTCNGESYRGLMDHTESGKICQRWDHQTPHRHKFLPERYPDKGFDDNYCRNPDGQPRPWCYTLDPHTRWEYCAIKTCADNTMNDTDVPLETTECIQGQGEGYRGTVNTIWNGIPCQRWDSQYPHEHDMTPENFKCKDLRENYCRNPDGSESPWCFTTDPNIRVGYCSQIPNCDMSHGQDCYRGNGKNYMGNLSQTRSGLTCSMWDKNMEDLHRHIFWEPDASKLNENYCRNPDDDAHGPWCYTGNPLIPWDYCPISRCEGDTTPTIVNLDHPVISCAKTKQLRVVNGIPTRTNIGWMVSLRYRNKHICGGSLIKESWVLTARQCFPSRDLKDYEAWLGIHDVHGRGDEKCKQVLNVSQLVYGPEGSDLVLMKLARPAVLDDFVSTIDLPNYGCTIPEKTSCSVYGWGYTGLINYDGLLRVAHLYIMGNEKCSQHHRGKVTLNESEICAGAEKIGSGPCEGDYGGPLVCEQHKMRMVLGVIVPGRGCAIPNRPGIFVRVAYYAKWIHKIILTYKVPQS
Chain of human c-Met (human) (P08581 25-1390): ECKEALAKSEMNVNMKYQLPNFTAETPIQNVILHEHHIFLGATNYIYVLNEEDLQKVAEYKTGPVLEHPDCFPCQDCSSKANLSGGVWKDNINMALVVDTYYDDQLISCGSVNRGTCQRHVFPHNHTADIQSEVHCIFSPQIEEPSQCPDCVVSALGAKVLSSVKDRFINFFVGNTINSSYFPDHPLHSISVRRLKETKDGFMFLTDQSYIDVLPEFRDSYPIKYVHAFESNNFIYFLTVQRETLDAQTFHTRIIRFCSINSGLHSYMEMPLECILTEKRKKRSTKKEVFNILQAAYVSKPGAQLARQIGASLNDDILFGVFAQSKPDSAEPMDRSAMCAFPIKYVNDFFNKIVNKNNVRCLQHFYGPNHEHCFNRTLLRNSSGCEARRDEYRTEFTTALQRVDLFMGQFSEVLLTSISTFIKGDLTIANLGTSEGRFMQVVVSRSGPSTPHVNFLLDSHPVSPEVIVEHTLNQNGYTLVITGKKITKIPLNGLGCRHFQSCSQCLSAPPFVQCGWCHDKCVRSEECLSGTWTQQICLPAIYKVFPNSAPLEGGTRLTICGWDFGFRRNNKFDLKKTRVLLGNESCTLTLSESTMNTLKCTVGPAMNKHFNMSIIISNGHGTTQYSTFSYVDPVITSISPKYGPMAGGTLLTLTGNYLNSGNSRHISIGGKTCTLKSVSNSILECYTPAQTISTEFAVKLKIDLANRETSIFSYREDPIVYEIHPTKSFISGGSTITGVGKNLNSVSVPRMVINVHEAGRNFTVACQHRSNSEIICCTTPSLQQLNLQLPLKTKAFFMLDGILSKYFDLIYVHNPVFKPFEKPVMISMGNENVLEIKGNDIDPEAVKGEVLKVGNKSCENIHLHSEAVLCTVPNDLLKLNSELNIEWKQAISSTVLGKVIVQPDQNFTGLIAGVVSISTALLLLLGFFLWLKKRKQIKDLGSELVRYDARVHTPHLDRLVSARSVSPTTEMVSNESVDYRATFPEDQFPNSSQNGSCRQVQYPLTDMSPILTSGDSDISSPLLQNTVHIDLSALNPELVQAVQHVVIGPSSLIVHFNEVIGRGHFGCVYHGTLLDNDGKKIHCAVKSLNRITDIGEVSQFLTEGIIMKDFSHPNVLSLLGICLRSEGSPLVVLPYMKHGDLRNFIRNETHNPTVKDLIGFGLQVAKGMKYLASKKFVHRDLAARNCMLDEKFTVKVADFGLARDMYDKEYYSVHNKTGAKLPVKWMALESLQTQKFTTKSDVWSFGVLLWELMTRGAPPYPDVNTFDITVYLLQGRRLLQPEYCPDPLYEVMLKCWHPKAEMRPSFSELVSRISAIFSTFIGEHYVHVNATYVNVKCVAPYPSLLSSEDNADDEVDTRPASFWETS

- % inhibition of HGF stimulated phospho-Met (ELISA, HCT116 cells), Ab 0.0032 µg/mL [1]: -10.2%
- % inhibition of HGF stimulated phospho-Met (ELISA, HCT116 cells), Ab 0.016 µg/mL [1]: 9.49%
- % inhibition of HGF stimulated phospho-Met (ELISA, HCT116 cells), Ab 0.08 µg/mL [1]: -1.58%
- % inhibition of HGF stimulated phospho-Met (ELISA, HCT116 cells), Ab 0.4 µg/mL [1]: 9.31%
- % inhibition of HGF stimulated phospho-Met (ELISA, HCT116 cells), Ab 2 µg/mL [1]: 17.5%
- % inhibition of HGF stimulated phospho-Met (ELISA, HCT116 cells), Ab 10 µg/mL [1]: 6.24%
- AVG CPM, 3H-thymidine incorporation in MKN45 cells, Ab 0.0 ng/mL (no antibody) [1]: 50400 CPM
- AVG CPM, 3H-thymidine incorporation in MKN45 cells, Ab 0.1 ng/mL [1]: 44800 CPM
- AVG CPM, 3H-thymidine incorporation in MKN45 cells, Ab 0.4 ng/mL [1]: 46500 CPM
- AVG CPM, 3H-thymidine incorporation in MKN45 cells, Ab 2.6 ng/mL [1]: 48500 CPM
- AVG CPM, 3H-thymidine incorporation in MKN45 cells, Ab 15.4 ng/mL [1]: 50500 CPM
- AVG CPM, 3H-thymidine incorporation in MKN45 cells, Ab 92.6 ng/mL [1]: 47600 CPM
- AVG CPM, 3H-thymidine incorporation in MKN45 cells, Ab 555.6 ng/mL [1]: 51700 CPM
- AVG CPM, 3H-thymidine incorporation in MKN45 cells, Ab 3333.3 ng/mL [1]: 49400 CPM
- AVG CPM, 3H-thymidine incorporation in MKN45 cells, Ab 20000.0 ng/mL [1]: 45100 CPM
- Mean Fluorescence (c-Met left on the surface of MKN45 cells, FACS), Ab 5.00 ug/mL [1]: 130
- AVG A450 nm [2]: 2.7 A450 nm
- AVG A450 nm [3]: 2.46 A450 nm
- AVG A450 nm [4]: 2.43 A450 nm
- AVG A450 nm [5]: 2.53 A450 nm
- AVG A450 nm [6]: 2.5 A450 nm
- AVG A450 nm [7]: 2.41 A450 nm
- AVG A450 nm [8]: 2.52 A450 nm
- AVG A450 nm [9]: 2.5 A450 nm
- AVG A450 nm [10]: 2.87 A450 nm
- AVG A450 nm [11]: 2.43 A450 nm
- AVG A450 nm [12]: 2.43 A450 nm
Substance: humanized IgG2 isotype control antibody

- 3H-Thymidine Incorporation in Primary Human Hepatocytes (ave), HGF 200 ng/mL [1]: 6290
- H441 Scratch Assay, Avg. %, HGF 200 ng/mL [1]: 364%
- HepG2 Cell Invasiveness, Average Cell Number Per 2.5x Field, HGF 50 ng/mL (cells per 2.5x field) [1]: 510
- Percent of DU145 Cells in Colonies (scatter assay), HGF 20 ng/mL [1]: 8.15%
- Staurosporine-Induced Apoptosis in Caki-1 Cells, Average A450 nm, HGF 0.02 ng/mL [1]: 0.97 A450 nm
- Staurosporine-Induced Apoptosis in Caki-1 Cells, Average A450 nm, HGF 0.23 ng/mL [1]: 0.93 A450 nm
- Staurosporine-Induced Apoptosis in Caki-1 Cells, Average A450 nm, HGF 2.25 ng/mL [1]: 0.73 A450 nm
- Staurosporine-Induced Apoptosis in Caki-1 Cells, Average A450 nm, HGF 22.5 ng/mL [1]: 0.58 A450 nm
- Staurosporine-Induced Apoptosis in Caki-1 Cells, Average A450 nm, HGF 225 ng/mL [1]: 0.45 A450 nm
- Tube Formation in ECFC Cells, Total Tube Area (Avg.), HGF 100 ng/mL [1]: 212000
- Tubular Morphogenesis Agonist activity (fold stimulation) in HepG2 cells, HGF 50 ng/ml (fold stimulation) [1]: 5.4
Substance: human hepatocyte growth factor (HGF) (from UniProt P14210 32-728) (ligand)
